In PMC5389614:
Numbering of substitutions follows the chain as printed. Where two headings read alike, the source gives them in different places.

Legend:
[1] = target: T1, AgeI wt (UniProt Q9KHV6 1-278); test: X-ray crystallography
T1 sequence: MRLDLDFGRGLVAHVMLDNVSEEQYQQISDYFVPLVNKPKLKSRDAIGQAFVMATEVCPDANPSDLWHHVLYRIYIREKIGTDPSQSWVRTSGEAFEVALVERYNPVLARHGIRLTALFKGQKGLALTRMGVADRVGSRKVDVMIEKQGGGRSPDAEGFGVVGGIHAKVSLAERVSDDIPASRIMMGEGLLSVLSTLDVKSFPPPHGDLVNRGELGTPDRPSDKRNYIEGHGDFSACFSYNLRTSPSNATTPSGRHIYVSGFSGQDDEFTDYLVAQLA

[2] = target: T1, AgeI wt; test: X-ray crystallography; remark: listed apart in the source
[3] = target: T2, AgeI D142A (UniProt Q9KHV6 1-278, D142A); test: EMSA
T2 sequence: T1 sequence with D142A

[4] = target: T3, AgeI D223A (UniProt Q9KHV6 1-278, D223A); test: EMSA
T3 sequence: T1 sequence with D223A

[5] = target: T4, AgeI D178A (UniProt Q9KHV6 1-278, D178A); test: EMSA
T4 sequence: T1 sequence with D178A

[6] = target: T5, AgeI S138A (UniProt Q9KHV6 1-278, S138A); test: EMSA
T5 sequence: T1 sequence with S138A

[7] = target: T6, AgeI Q86A (UniProt Q9KHV6 1-278, Q86A); test: EMSA
T6 sequence: T1 sequence with Q86A

[8] = target: T7, AgeI D177A (UniProt Q9KHV6 1-278, D177A); test: EMSA
T7 sequence: T1 sequence with D177A

[9] = target: T1, AgeI wt; test: EMSA

B1: SP13 (dsDNA)
DNA 1: TTCGACCGGTCGA
DNA 2: TTCGACCGGTCGA
B1: binds [1].

B2: SP11 (dsDNA)
DNA 1: TCGACCGGTCG
DNA 2: TCGACCGGTCG
B2: binds [2].

B3: SP (specific) (dsDNA)
DNA 1: AGACCCACGCTCACCGGTTCCAGATTTATC
DNA 2: GATAAATCTGGAACCGGTGAGCGTGGGTCT
B3 showed a Kd [3] of 2.4 ± 0.8 nM, a Kd [4] of 1.2 ± 0.4 nM and a Kd [5] of 1 ± 0.3 nM. The Kd [6] was 1.2 ± 0.2 nM, the Kd [7] was 4.6 ± 1.4 nM and the Kd [8] was 19.5 ± 5.6 nM. It also gave a Kd [9] of 0.9 ± 0.2 nM.

B4: NC (non-canonical) (dsDNA)
DNA 1: B3 DNA 1 with T18A
DNA 2: B3 DNA 2 with A13T
Work on B4 yielded a Kd [4] of ~5 nM, a Kd [5] of ~5 nM and a Kd [8] of 14.7 ± 3.1 nM.
